Experiments:
Test in all cases: SPR, release and stability method, specific binding activity
[1] = biological target: T1, BCMA (the 'Antigen' of the SPR antigen binding assay) (human, UniProt Q02223 1-54, limits assumed)
T1 construct: also called human BCMA
T1 sequence (looked up): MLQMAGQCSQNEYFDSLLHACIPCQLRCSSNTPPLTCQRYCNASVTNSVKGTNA
Method: (§1) Antigen, FcγRIIIa, and FcRn specific binding activity of the purified DL variants was measured using SPR. Antigen, FcγRIIIa and FcRN analyses were performed using a release and stability surface plasmon resonance (SPR) method. The specific binding activities measured were between 80-110% for the purified DL variants. […] Despite the trend observed, the decrease in binding activity as a function of drug load is minimal and remains within specification acceptance criteria. It has been observed that as the DAR increases, there is no significant change in antigen FcγRIIIa binding by SPR and antibody-dependent cell-mediated cytotoxicity (ADCC) activity.

[2] = biological target: T2, FcγRIIIa (UniProt P08637 17-208, limits assumed)
T2 construct: also called FcyRIIIa
T2 sequence (P08637 17-208 limits assumed): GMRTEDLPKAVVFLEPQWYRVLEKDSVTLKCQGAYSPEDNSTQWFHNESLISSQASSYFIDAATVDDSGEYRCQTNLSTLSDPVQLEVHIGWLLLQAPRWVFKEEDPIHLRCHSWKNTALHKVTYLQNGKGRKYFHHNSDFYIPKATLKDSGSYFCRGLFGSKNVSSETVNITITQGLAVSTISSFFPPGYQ
Method: as §1

[3] = biological target: T3, FcRn (UniProt P55899 24-297; P61769 21-119, limits assumed)
T3 construct: also called FcRNn
T3 sequence (P55899 24-297 limits assumed, chain 1 of 2): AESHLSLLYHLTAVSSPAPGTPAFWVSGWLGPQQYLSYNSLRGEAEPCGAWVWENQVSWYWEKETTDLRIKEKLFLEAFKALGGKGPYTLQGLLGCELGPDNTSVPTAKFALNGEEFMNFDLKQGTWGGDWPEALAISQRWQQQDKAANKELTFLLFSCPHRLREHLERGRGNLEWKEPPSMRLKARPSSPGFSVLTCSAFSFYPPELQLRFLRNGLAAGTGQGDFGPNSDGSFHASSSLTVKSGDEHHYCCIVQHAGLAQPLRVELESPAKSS
T3 sequence (P61769 21-119 limits assumed, chain 2 of 2): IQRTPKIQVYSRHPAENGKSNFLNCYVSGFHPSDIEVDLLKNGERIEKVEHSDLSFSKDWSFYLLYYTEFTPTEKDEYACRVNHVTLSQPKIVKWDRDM
Method: as §1

B1: purified DL4a drug-load variant of belantamab mafodotin (antibody, human IgG1, kappa)
heavy: not shown
light: not shown
modifications: mcMMAF on each LC C214 (sequential numbering); mcMMAF on each HC C224 (sequential numbering)
notes: Antibody drug conjugate, drug load of four
With B1 the “Antigen Binding (%) (specific binding activity)” value (“Antigen Binding (%)” below) [1] was 95%, the “FcyRIIIa Binding (%) (specific binding activity)” value (“FcyRIIIa Binding (%)” for short) [2] was 103% and the “FcRNn Binding (%) (specific binding activity)” value (shortened to “FcRNn Binding (%)”) [3] was 102%.

B2: purified DL8 drug-load variant of belantamab mafodotin (antibody, human IgG1, kappa)
heavy: not shown
light: not shown
modifications: mcMMAF on each LC C214 (sequential numbering); mcMMAF on HC C224, HC C230 and HC C233 of both heavy chains (sequential numbering)
notes: Antibody drug conjugate, drug load of eight
For B2, the “Antigen Binding (%)” value [1] was 86%, the “FcyRIIIa Binding (%)” value [2] was 82% and the “FcRNn Binding (%)” value [3] was 93%.

B3: purified DL4b drug-load variant of belantamab mafodotin (antibody, human IgG1, kappa)
heavy: not shown
light: not shown
modifications: mcMMAF on HC C230 and HC C233 of both heavy chains (sequential numbering)
notes: Antibody drug conjugate, drug load of four at the hinge
In the case of B3, the “Antigen Binding (%)” value [1] is reported as 90%, the “FcyRIIIa Binding (%)” value [2] is reported as 91% and the “FcRNn Binding (%)” value [3] is reported as 99%.

B4: purified DL2 drug-load variant of belantamab mafodotin (antibody, human IgG1, kappa)
heavy: not shown
light: not shown
modifications: mcMMAF on LC C214 of one of the two light chains (sequential numbering); mcMMAF on HC C224 of one of the two heavy chains (sequential numbering)
notes: Antibody drug conjugate, drug load of two; also called DL2a
In the case of B4, the “Antigen Binding (%)” value [1] is reported as 99%, the “FcyRIIIa Binding (%)” value [2] is reported as 104% and the “FcRNn Binding (%)” value [3] is reported as 109%.

B5: purified DL0 drug-load variant of belantamab mafodotin (unconjugated belantamab) (antibody, human IgG1, kappa)
heavy: not shown
light: not shown
notes: HIC-purified fraction of belantamab mafodotin
For B5, the “Antigen Binding (%)” value [1] was 103%, the “FcyRIIIa Binding (%)” value [2] was 110% and the “FcRNn Binding (%)” value [3] was 108%.

Reference: patent US20240369568A1 (GlaxoSmithKline, published 2024)
